Tests used:
tPA = molecular target: T1, tPA (Homo sapiens, UniProt P00750); experiment: tPA binding assay with immobilized biopharmaceuticals in an ELISA; conditions: therapeutic coated 1:10; one-site binding fit
T1 construct: purchased Boehringer-Ingelheim (Actilyse, Alteplase)
Experimental: Nunc Immobilizer plates (Nalge Nunc, #436013, Rochester, N.Y., USA) were coated with 50 μL containing 5 μg/mL of sample protein (unless indicated otherwise) in 100 mM NaHCO3, pH 9.6, 0.05% m/v NaN3 for 1 hour at room temperature. Plates were washed twice with Tris buffered saline pH 7.2 containing 0.1% Tween20 (TBST) and blocked with PBS containing 1% Tween20 for 1 hour at room temperature. […] Plates were washed five times with TBST and incubated with peroxidase labeled anti-mouse immunoglobulins (RAMPO; DAKOCytomation, Glostrup, Denmark) diluted 1:3000 in PBST for 30 minutes at room temperature. Plates were washed five times with PBS 0.1% Tween20, and stained with 100 μL/well of tetramethyl-benzidine (TMB) substrate (Biosource Europe, Nivelles, Belgium). The reaction was terminated with 50 μL/well of 2 M H2SO4 and substrate conversion was read at 450 nm on a Spectramax340 microplate reader. Curves were fitted with a one-site binding model (GraphPad Prism version 4.02 for Windows, Graphpad Software, CA, USA) from which Kd and Bmax were determined.
(§1) Protein therapeutics were obtained from the local hospital pharmacy and analyzed within the expiry limits as stated by the manufacturers.

Congo red fluorescence = format: physicochemical; conditions: marketed biopharmaceutical within expiry limits, five μL tested
Experimental: Background signals from buffer, buffer with Congo red and protein/peptide solution without Congo red were subtracted from corresponding measurements with protein solution incubated with Congo red. Fluorescence was measured in triplicate on a Hitachi F-4500 fluorescence spectrophotometer (Ltd., Tokyo, Japan).
Formulated protein therapeutics were obtained from the local hospital pharmacy and were used as supplied by the manufacturers. […] Lyophilized therapeutics were dissolved according to the manufacturers recommendations. […] Other protein therapeutics were only kept at 4° C., and assayed for the presence of cross-β structure conformation at shown time points. Enhancement in fluorescence of ThT and Congo red was measured with all formulated protein therapeutics. For this purpose, proteins were diluted to the indicated concentrations. […] Zinc-insulin was diluted tenfold in the activation assay, GH was diluted to a final concentration of 500 μg ml^−1. Activation of factor XII and prekallikrein by the therapeutics was tested in the chromogenic factor XII assay (see above). […] After coating, plates were blocked with Blocking Reagent (Roche Diagnostics, Almere, The Netherlands).
as §1

platelets = experiment: Platelet aggregation assay; format: cell-based, human; conditions: 512-fold diluted plasma spiked with 250 μg/ml BSA-AGE, tenfold diluted
Experimental: In a next series of experiments, diluted plasma was enriched with a 250 μg/ml BSA-AGE spike and subsequently added to tPA F-biotin-Streptavidin-Sepharose. […] Results are compared to platelet activating properties of the spiked plasma before depletion of BSA-AGE.
Freshly drawn human aspirin free blood was mixed gently with citrate buffer to avoid coagulation. Blood was spinned for 15′ at 150*g at 20° C. and supernatant was collected; platelet rich plasma (PRP) with an adjusted final platelet number of 200,000 platelets/μl. Platelets were kept at 37° C. for at least 30′, before use in the assays, to ensure that they were in the resting state. For the aggregometric assays, 270 μl platelet solution was added to a glass tube and prewarmed to 37° C. A stirring magnet was added and rotation was set to 900 rpm, and the apparatus (Whole-blood aggregometer, Chrono-log, Havertown, Pa., USA) was blanked. A final volume of 30 μl of tester solution was added, containing the agonist of interest (buffer, control, diluted plasma with BSA-AGE, before and after contacting tPA F-biotin-Streptavidin-Sepharose), prediluted in HEPES-Tyrode buffer pH 7.2. Aggregation was followed in time by measuring the absorbance of the solution, that will decrease in time upon platelet aggregation. […] Aggregation was recorded for 15′ and expressed as the percentage of the transmitted light (0-100%).

T1 sequence (P00750 36-562): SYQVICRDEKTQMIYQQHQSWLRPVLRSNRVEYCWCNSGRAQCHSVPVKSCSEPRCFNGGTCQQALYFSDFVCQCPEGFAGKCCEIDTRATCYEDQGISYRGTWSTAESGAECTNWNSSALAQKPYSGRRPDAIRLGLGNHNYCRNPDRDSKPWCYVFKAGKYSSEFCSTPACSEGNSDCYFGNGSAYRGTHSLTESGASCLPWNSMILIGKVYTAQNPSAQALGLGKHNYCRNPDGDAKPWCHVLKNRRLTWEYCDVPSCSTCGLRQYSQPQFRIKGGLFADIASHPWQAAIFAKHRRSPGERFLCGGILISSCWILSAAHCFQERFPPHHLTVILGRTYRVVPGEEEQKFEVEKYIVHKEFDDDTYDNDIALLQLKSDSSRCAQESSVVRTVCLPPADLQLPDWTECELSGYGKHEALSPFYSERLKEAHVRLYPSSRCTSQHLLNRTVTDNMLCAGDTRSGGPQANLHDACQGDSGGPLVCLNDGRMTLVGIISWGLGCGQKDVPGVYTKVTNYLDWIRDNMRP

Row | tPA Binding Bmax (OD450 nm) (tPA) | Substance | Fluorescence (a.u. +/− SD) CR (Congo red fluorescence) | platelet aggregation (platelets)
1 | 0.5329 OD450 nm | Abciximab: abciximab, an inhibitor of blood platelet aggregation (ReoPro, Centocor) | 25 +/− 1 a.u. | –
2 | – | albumin-AGE: advanced glycation end-product modified bovine serum albumin | – | Platelets readily aggregate
